“Also recorded” adds a separate entry of the source. Where two headings read alike, the source gives them in different places.
Columns and labels:
HAdV species C = assay: Infection assay (hexon staining), HAdV species C; assay type: cell-based, human adenovirus; conditions: 15 µM HD5, A549 cells, hexon staining at ~48 h, vs. no defensin
Description: (§1) To determine whether sensitivity to α-defensins is a general property of HAdVs, serotypes representative of HAdV species A–F were tested for infectivity in the presence of 15 µM HD5 or HNP1 (Figure 1). Wild type HAdVs rather than vectors were used for these studies, and infectivity was assessed by staining for hexon production. […] These studies indicate that sensitivity to α-defensins is species specific. In addition, particular HAdV serotypes are not equally sensitive to all defensins, indicating defensin sequence specificity as well.
(§2) Figure 1 Sensitivity to neutralization by alpha-defensins is AdV species specific. HAdVs were incubated with 15 µM HD5 (A) or HNP1 (B) and assessed for infectivity on A549 cells. Data are the mean of the percent infectivity compared to control cells infected with each virus in the absence of defensin for at least three independent experiments ± SD. The upper limit for quantification of this assay is 200%. […]
(§3) Prior to use in this assay, each virus stock was titrated on A549 cells. […] In parallel, wells were infected with two-fold serial dilutions of each virus to establish a standard curve for quantification with an upper limit of 200%. […] Total well fluorescence above background was quantified with ImageJ software. For each virus, samples were quantified by nonlinear regression against the standard curve using Prism software (GraphPad Software, Inc., La Jolla, CA).

HAdV-4 (species E) = assay: Infection assay (hexon staining), HAdV-4; assay type: cell-based, human adenovirus; conditions: 15 µM HD5 or HNP1, A549 cells, hexon staining at ~48 h, vs. no defensin
Description: as §1, §2, §3

HAdV-5 capsid = assay: Virus-defensin equilibrium-binding assay, HAdV-5; parameters: species or system human adenovirus
Description: Neutralization of HAdV by α-defensins is dependent upon binding to the virus capsid, which can be disrupted in the presence of elevated concentrations of sodium chloride. To perform a more quantitative assessment of this interaction, increasing concentrations of HD5 were incubated with Ad5.eGFP to allow binding, and the virus/HD5 complex was then separated from unbound HD5 on a nycodenz gradient. Bound defensin was visualized after SDS-PAGE using a sensitive fluorescent total protein stain and quantified against a standard curve.
(§4) Figure 2 HD5 binding to HAdV. A) HD5 binding to a representative defensin-sensitive serotype (HAdV-5) was quantified by an equilibrium-binding assay. Data are the mean of the number of HD5 molecules bound per virion at the indicated HD5 concentrations from at least three independent experiments ± SD. Binding curves were fitted using Prism software. B) Binding of HD5 to additional defensin-sensitive (HAdV-7p) and resistant (HAdV-19c, -25p, -51p) serotypes expressed as a percent of HD5 bound to HAdV-5. Data are the mean of two or three independent experiments ± SD.
(§5) To measure HD5 binding to HAdV-5 and -51, HD5 was serially diluted in PBS and mixed with 5 µg purified virus. After 1 h incubation on ice, one half of each sample was separated by ultracentrifugation [209,000×g (avg.) for 2 hrs at 4°C] on a discontinuous gradient consisting of 300 µl of 30% nycodenz and 200 µl of 80% nycodenz in 50 mM NaCl, 20 mM HEPES pH 7.4 using an SW55ti rotor with adaptors (Beckman Coulter, Inc.). The visible virus band was collected. The other half of each sample was used to make a standard curve for quantification. All samples were boiled in reducing loading buffer and separated using a 16% PAGEgel (Expedeon, Inc., San Diego, CA) or 10–20% Tris-Tricine gel (Bio-Rad, Hercules, CA). The gels were stained with Deep Purple (GE Healthcare) and imaged on a Typhoon Trio. Virus bands were quantified using ImageQuant NT software (GE Healthcare). The amount of HD5 in each sample was normalized to protein V and hexon. The amount of HD5 in the centrifuged samples was then quantified against the standard curve using Prism software. Affinity and stoichiometry were estimated from the average data of at least three independent experiments using Prism software.

HAdV-51p = assay: Virus-defensin binding assay, HAdV-51p; parameters: species or system human adenovirus
Source text: as §4
We assessed HD5 binding to additional serotypes after incubation with 20 µM HD5 (Figure 2B). The sensitive serotype HAdV-7p bound 69.3±15.9% of the amount of HD5 bound to HAdV-5 in parallel samples; whereas, the corresponding values for the resistant serotypes HAdV-19c, -25p, and -51p were 32.5±7.5%, 3.3±5.8%, and 24.6±12.0%, respectively.
To measure HD5 binding to HAdV-5 and -51, HD5 was serially diluted in PBS and mixed with 5 µg purified virus. […] The other half of each sample was used to make a standard curve for quantification. […] Virus bands were quantified using ImageQuant NT software (GE Healthcare). […] The amount of HD5 in the centrifuged samples was then quantified against the standard curve using Prism software. […]

Ad5.F35 = assay: Sensitivity of Ad5.F35 to HD5; assay type: cell-based, human adenovirus; conditions: data not shown; compared with HAdV-5 and HAdV-35
PB/GYAR = assay: Virus-defensin binding assay, PB/GYAR; parameters: species or system human adenovirus; conditions: studies equivalent to Figure 2B, data not shown
Description: We then combined the GYAR substitution with the PB substitution in a single construct (PB/GYAR).
as §5

B1: HD5: human alpha-defensin; synthetic, obtained from Peptides International; three disulfide bonds (PDB 1ZMP) (peptide, UniProt Q01523 20-94, looked up)
Defensin alpha 5: ESLQERADEATTQKQSGEDNQDLAISFAGNGLSALRTSGSQARATCYCRTGRCATRESLSGVCEISGRLYRLCCR
modifications: Defensin-5
- sensitivity to neutralization (infectivity) (HAdV species C): sensitive
- sensitivity to neutralization (infectivity) (HAdV-4 (species E)): moderately sensitive
- 95% confidence interval of HD5 molecules bound per virus particle at saturation (HAdV-5 capsid; 95% confidence interval): 1603–3919 HD5 molecules
- Kd (HAdV-5 capsid; 95% confidence interval, read-out: 95% confidence interval of KD): 2.8 to 26.2 µM
- level of HD5 binding (in words) (HAdV-5 capsid; HAdV-5): specific binding
- Kd (HAdV-5 capsid; equilibrium binding, Ad5.eGFP, 1 h on ice in PBS, nycodenz gradient, at least three independent experiments, read-out: KD): ~14.5 µM
- HD5 bound, percent of HD5 bound to HAdV-5 (HAdV-51p; 20 µM HD5, mean of two or three independent experiments ± SD): 24.6±12.0%
- level of HD5 binding (in words) (HAdV-51p; HAdV-51p): only a low level of binding
- sensitivity of Ad5.F35 to HD5 (Ad5.F35): comparable to that of HAdV-5 and HAdV-35
- amount of HD5 bound compared to HAdV-5 (PB/GYAR): did not detect a reduction in the amount of HD5 bound; also recorded: did not result in a noticeable reduction in overall HD5 binding
